B1: Retinoblastoma-associated protein (Homo sapiens), P06400 (parent)
chain: MPPKTPRKTAATAAAAAAEPPAPPPPPPPEEDPEQDSGPEDLPLVRLEFEETEEPDFTALCQKLKIPDHVRERAWLTWEKVSSVDGVLGGYIQKKKELWGICIFIAAVDLDEMSFTFTELQKNIEISVHKFFNLLKEIDTSTKVDNAMSRLLKKYDVLFALFSKLERTCELIYLTQPSSSISTEINSALVLKVSWITFLLAKGEVLQMEDDLVISFQLMLCVLDYFIKLSPPMLLKEPYKTAVIPINGSPRTPRRGQNRSARIAKQLENDTRIIEVLCKEHECNIDEVKNVYFKNFIPFMNSLGLVTSNGLPEVENLSKRYEEIYLKNKDLDARLFLDHDKTLQTDSIDSFETQRTPRKSNLDEEVNVIPPHTPVRTVMNTIQQLMMILNSASDQPSENLISYFNNCTVNPKESILKRVKDIGYIFKEKFAKAVGQGCVEIGSQRYKLGVRLYYRVMESMLKSEEERLSIQNFSKLLNDNIFHMSLLACALEVVMATYSRSTSQNLDSGTDLSFPWILNVLNLKAFDFYKVIESFIKAEGNLTREMIKHLERCEHRIMESLAWLSDSPLFDLIKQSKDREGPTDHLESACPLNLPLQNNHTAADMYLSPVRSPKKKGSTTRVNSTANAETQATSAFQTQKPLKSTSLSLFYKKVYRLAYLRLNTLCERLLSEHPELEHIIWTLFQHTLQNEYELMRDRHLDQIMMCSMYGICKVKNIDLKFKIIVTAYKDLPHAVQETFKRVLIKEEEYDSIIVFYNSVFMQRLKTNILQYASTRPPTLSPIPHIPRSPYKFPSSPLRIPGGNIYISPLKSPYKISEGLPTPTKMTPRSRILVSIGESFGTSEKFQKINQMVCNSDRVLKRSAEGSNPPKPLKKLRFDIEGSDEADGSKHLPGESKFQQKLAEMTSTRTRMQKQKMNDSMDTSNKEEK

Variants of: B1
Settings: with hdac1_human HDAC1, Q13547
Sequence of hdac1_human HDAC1, Q13547 (Q13547 whole entry): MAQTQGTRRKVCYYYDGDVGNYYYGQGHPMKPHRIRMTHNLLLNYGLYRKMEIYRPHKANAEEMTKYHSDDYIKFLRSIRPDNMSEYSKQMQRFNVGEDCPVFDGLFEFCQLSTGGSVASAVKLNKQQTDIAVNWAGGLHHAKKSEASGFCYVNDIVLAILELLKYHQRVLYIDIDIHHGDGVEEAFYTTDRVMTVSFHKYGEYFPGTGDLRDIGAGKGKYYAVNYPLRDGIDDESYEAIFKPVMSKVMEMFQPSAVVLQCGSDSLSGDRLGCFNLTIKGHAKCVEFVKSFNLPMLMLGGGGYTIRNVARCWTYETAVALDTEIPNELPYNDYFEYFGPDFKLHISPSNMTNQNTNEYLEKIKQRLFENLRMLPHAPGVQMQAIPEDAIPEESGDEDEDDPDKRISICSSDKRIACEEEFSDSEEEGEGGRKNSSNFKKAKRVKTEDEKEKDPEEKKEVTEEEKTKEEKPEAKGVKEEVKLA

Variant | effect of a mutation on the interaction
C706F | decreasing interaction
